How the values were obtained:
[1] = target: C-C chemokine receptor type 5 (CCR5) with a C-terminal 1D4 epitope tag (human) (UniProt P51681)
[2] = target: C-C chemokine receptor type 5 (CCR5) with a C-terminal 1D4 epitope tag (human) (UniProt P51681); remark: listed apart in the source

Sequence of UniProt P51681 (P51681 whole entry): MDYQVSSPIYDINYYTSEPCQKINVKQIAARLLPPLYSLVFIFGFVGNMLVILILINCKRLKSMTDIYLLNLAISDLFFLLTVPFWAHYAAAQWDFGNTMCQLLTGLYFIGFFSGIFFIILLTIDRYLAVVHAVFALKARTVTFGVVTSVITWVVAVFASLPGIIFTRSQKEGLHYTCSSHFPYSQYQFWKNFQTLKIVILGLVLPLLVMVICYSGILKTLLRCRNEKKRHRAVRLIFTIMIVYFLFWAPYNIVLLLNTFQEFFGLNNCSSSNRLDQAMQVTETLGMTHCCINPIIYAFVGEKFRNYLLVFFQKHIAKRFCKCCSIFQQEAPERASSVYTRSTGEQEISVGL
Sequence of PSC-RANTES (P13501 24-91): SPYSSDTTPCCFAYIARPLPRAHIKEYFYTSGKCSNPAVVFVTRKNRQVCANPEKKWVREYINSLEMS

Row | Substance | increase in intracellular Ca2+ (FLIPR Calcium 6 dye, mean RFU) of CCR5-transfected HEK293T cells on injection of 100 nM RANTES; buffer pre-injection, no inhibitor [1] [RFU] | increase in intracellular Ca2+ (FLIPR Calcium 6 dye, mean RFU) of CCR5-transfected HEK293T cells on injection of 100 nM PSC-RANTES; no ATP pre-stimulation, no inhibitor [2] [RFU]
1 | regulated on activation, normal T cell expressed and secreted (RANTES) (from UniProt P13501 24-91) (ligand) | 3830 | –
2 | PSC-RANTES (from UniProt P13501 24-91) (ligand) | – | 9900
